Experimental data from patent publication US6613878B1, “PCNA binding substance” (Cyclacel Limited, priority 1995, dated 2003).
Ends that are not written are not given here.

What was measured:
PCNA [1] = target: T1, PCNA (Homo sapiens, UniProt P12004); assay: Peptide precipitation of PCNA from HeLa cell lysate, PC10 Western blot; type: binding; design: HeLa cell lysate was added to the washed beads to a final protein concentration of 1 mg/ml; endogenous in cells; host or cells: HeLa; conditions: 2.7 μg peptide on beads; HeLa lysate 1 mg/ml; PC10 immunoblot
Method: Twenty amino acid peptides with 15 amino acid overlaps were synthesized (Chiron Mimotopes, Australia) across the 89 amino acids from the C-terminal region of Fen1 identified in the two hybrid screen as the PCNA binding site on Fen1. These peptides were linked via residues SGSG (SEQ ID NO:3) at the amino acid terminus to biotin. 2.7 μg of each peptide was incubated with 10 μl streptavidin agarose beads (Sigma) in phosphate buffered saline (PBS) for 1 hour at room temperature (r.t.) then beads were washed extensively in PBS and recovered each time by centrifugation at 11,600 g. HeLa cell lysate was added to the washed beads to a final protein concentration of 1 mg/ml and incubated with the beads on ice for 1 hour. Beads were extensively washed in PBS with 220 mM NaCl, then bound proteins removed by boiling for 8 minutes in SDS loading buffer with 0.2 M DTT. Proteins were separated on 10% SDS-PAGE then electrophoretically transferred to nitrocellulose. Blots were blocked then incubated for 1 hour r.t. with PC 10 hybridoma supernatant (Waseem & Lane, 1990) diluted 1:5 in DMEM with 10% FCS. After washing, secondary HRP-conjugated anti-mouse IgG serum at 1:1000 in 2% non-fat milk-PBS-0.2% Tween was added for 1 hour at r.t. Bound antibody was visualised using the ECL system according to the manufacturer's instructions (Amersham plc.)
To map precisely the residues of Fen1 to which PCNA binds, a series of biotinylated 20 amino acids peptides (with 15 amino acid overlaps) were synthesized representing the region of Fen1 found to interact with PCNA in the two hybrid screen (FIG. 1). Fen1 peptides (bound to streptavidin agarose beads) were incubated with human HeLa cell extracts, then beads were precipitated and bound protein analysed on immunoblots probed with monoclonal anti-PCNA antibody PC10 (Waseen & Lane, 1990).
The region of human Fen1 recognised by PCNA in the precipitation assay contains a motif highly conserved in the Fen1 family. We examined whether human PCNA could bind to his motif in the yeast homologues of Fen1, S. pombe rad2 and […]/YKL510. […]

PCNA [2] = target: T1, PCNA; assay: Competitive ELISA: PCNA binding to immobilised FenPBP (peptide 84); design: made in house; used as unpurified lysate; conditions: non-biotinylated 9-mer, FIG. 4
Method: Biotinylated FenPBP (peptide 84 (SEQ ID NO:4)—see FIG. 2) was immobilised on ELISA dishes pre-coated with streptavidin. Bacterial cell lysate overexpressing recombinant human PCNA was mixed with increasing amounts of a non-biotinylated 9 amino acid peptide QTSMTDFYH (SEQ ID NO:2) derived from p21PBP (Warbrick et al., 1995), then binding of PCNA to the immobilised FenPBP was measured using polyclonal antibody 3009 against PCNA, followed by HRP-anti-rabbit antibody,and calorimetric detection at 450 nm.
ELISA plates were coated overnight at 37° C. with 100 ng of streptavidin per well. Plates were blocked with 5% non-fat milk powder in PBS, washed extensively with PBS containing 0.2% Tween 20 (PBS-T) then 100 μl FenPBP—peptide 84 (SEQ ID NO:4) (see FIG. 2)—at 10 μg/ml was added to each well. Following 1 hour incubation at r.t. in a humid chamber, wells were washed extensively. Approximately 3.5 μg total protein containing overexpressed recombinant human PCNA was mixed with varying concentrations of a 9 amino acid peptide derived from p21PBP (Warbrick et al, 1995), of the sequence QTSMTDFYH (SEQ ID NO:2) (purified by HPLC and verified by mass spectrometry) and applied to the wells for 1 hour at r.t. After extensive washing, anti-PCNA polyclonal antibody 3009 (Cox et al., manuscript in preparation) was added at 1:1000, followed by HRP-conjugated anti-rabbit IgG serum at 1:1000, and bound antibody was visualized by the TMB colormetric procedure (Harlow & Lane, 1998). Plated were read at 450 nm using a Dynatech 5000 plate reader.
Since the region of PCNA bound by Fen1 is the same as that recognised by p21^Cip1, and the motif of Fen1 required for PCNA interaction appears homologous to the critical residues of p21PBP (Warbrick et al., 1995), it is highly possible that Fen1 and p21^Cip1 might compete for binding to PCNA. We therefore tested this hypothesis using PCNA-interacting peptide 84 (SEQ ID NO:4) of Fen1 (dubbed Fen1PBP for Fen1-PCNA binding peptide) immobilised in ELISA wells. […]

T1 sequence (P12004 whole entry): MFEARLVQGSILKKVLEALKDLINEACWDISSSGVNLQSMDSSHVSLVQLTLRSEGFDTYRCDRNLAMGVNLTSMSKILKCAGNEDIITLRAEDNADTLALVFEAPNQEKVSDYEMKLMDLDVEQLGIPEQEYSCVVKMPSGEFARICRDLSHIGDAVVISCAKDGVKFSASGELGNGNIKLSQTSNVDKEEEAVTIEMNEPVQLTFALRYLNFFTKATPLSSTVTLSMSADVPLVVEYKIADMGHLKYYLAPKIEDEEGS

Row | Substance | PCNA precipitated from HeLa cell extract by biotinylated peptide on streptavidin agarose beads (PCNA [1]) | Concentration of added peptide giving total displacement of PCNA from immobilised Fen1PBP (PCNA [2]; immobilised Fen1PBP) | Concentration of peptide that completely prevented PCNA binding to Fen1PBP (approximate molar) (PCNA [2]; immobilised biotinylated FenPBP) | Concentration of peptide that completely prevented PCNA binding to Fen1PBP (PCNA [2]; immobilised biotinylated FenPBP, antibody 3009, read at 450 nm)
1 | 85: Biotinylated 20 amino acid peptide of the human Fen1 C-terminal region containing TQGRLDDFFK (SGSGSRQGSTQGRLDDFFKVTGSL; also: biotinylated) [compound 85] | equal efficiency |  |  | 
2 | QTSMTDFYH [Non-biotinylated 9 amino acid peptide derived from p21PBP (Warbrick et al., 1995)] |  | 1 mM | approximately 1 μM | 1 µg/mL
3 | peptide 84: Biotinylated (SGSG-linked) 20 amino acid peptide of the human Fen1 C-terminal region containing TQGRLDDFFK; Fen1-PCNA binding peptide (SGSGKRLSKSRQGSTQGRLDDFFK; also: biotinylated, site not given here) | equal efficiency |  |  | 
4 | 86: Biotinylated 20 amino acid peptide of the human Fen1 C-terminal region containing TQGRLDDFFK (SGSGTQGRLDDFFKVTGSLSSAKR; also: biotinylated) [compound 86] | equal efficiency |  |  | 
